± gives the standard deviation of the averaged measurements.
Tested on: ATP
Test: switch fluorescence ratio, 500 uM ATP over buffer (Cy3 cluster intensity, sum of 5 cycles each) (fold (ratio)); higher = stronger signal-on switching upon ATP binding; sequences stand for … in TCGTCGGCAGCGTCAGATGTGTATAAGAGACAGTTTTTTTTTTTTTTTTTTTTTTTTT…TC
Conditions: aptamer strand: ATP DNA aptamer (quencher-CACCTGGGGGAGTATTGCGGAGGAAGG + anchor), 100 nM annealed; ATP concentration: 500 uM
Outline: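 Values give the fluorescence ratio for each switch-domain sequence, averaged from per-cluster ratios of summed target-cycle to summed buffer-cycle Cy3 intensity. The Cy3-labelled switching-strand clusters sat on a modified Illumina MiSeq flow-cell, were annealed to 100 nM quencher-labelled ATP aptamer, and were imaged in selection buffer, then after 15 min with 500 uM ATP at 22 °C. Five cycles ran with NaOH stripping and re-annealing between them, and clusters outside 100-1000 RFU were excluded.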
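Further: ATP exposure 15 min at 22 °C before imaging.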

With TACAGCAGGG the switch fluorescence ratio was 1.04 ± 0.012.
AGGCTCTTAT showed a switch fluorescence ratio of 1.03 ± 0.049.
In the case of GCTCGTAACT, the switch fluorescence ratio is reported as 1 ± 0.0065.
Work on GGGGTCCTGA yielded a switch fluorescence ratio of 1.01 ± 0.062.
GTGAAGGGTT gave a switch fluorescence ratio of 0.993 ± 0.039.
GTATATATAT was tested, and the switch fluorescence ratio was 0.979 ± 0.028.
TATGAAATGT showed a switch fluorescence ratio of 1.01 ± 0.033.
Work on GGGTGATTGG yielded a switch fluorescence ratio of 0.993 ± 0.018.
In the case of TTCTCTATAT, the switch fluorescence ratio is reported as 1.05 ± 0.11.
CGATGAGGGG showed a switch fluorescence ratio of 0.967 ± 0.03.
TATCGAAAAA showed a switch fluorescence ratio of 0.967 ± 0.054.
CTCGTATCAG was tested, and the switch fluorescence ratio was 1.01 ± 0.021.
TTTGGATGTT showed a switch fluorescence ratio of 1 ± 0.011.
For TTTGAGCTTT, the switch fluorescence ratio was 1.02 ± 0.018.
CCGGGGTGTG gave a switch fluorescence ratio of 1.08 ± 0.012.
Work on TGCGGCAATT yielded a switch fluorescence ratio of 1.09 ± 0.012.
Work on TGAAAAAAGG yielded a switch fluorescence ratio of 0.966 ± 0.03.
With TATTCGTTCT the switch fluorescence ratio was 0.9985 ± 0.0022.
Work on CCCTGGCAGC yielded a switch fluorescence ratio of 1.3 ± 0.019.
For TTTTAAGGAT, the switch fluorescence ratio was 1 ± 0.024.
CGGCTTATTC showed a switch fluorescence ratio of 1.04 ± 0.015.
TTTGGTAGTT gave a switch fluorescence ratio of 0.987 ± 0.015.
GGAGTTAATC gave a switch fluorescence ratio of 1.04 ± 0.037.
For GGAATAATTT, the switch fluorescence ratio was 1.51 ± 0.73.
For GTTTTAGTGG, the switch fluorescence ratio was 0.9867 ± 0.0089.
For TAAGGGGGAT, the switch fluorescence ratio was 1.021 ± 0.0082.
For ATGAGATCAG, the switch fluorescence ratio was 1.003 ± 0.005.
GGTTGGTATT was tested, and the switch fluorescence ratio was 1.001 ± 0.0099.
CCAGGTATGG was tested, and the switch fluorescence ratio was 1.05 ± 0.013.
GGGGGTTAGT was tested, and the switch fluorescence ratio was 1.01 ± 0.014.
Sequence TTTATTGCTA has a switch fluorescence ratio of 1.01 ± 0.034.
TTAGCGAGGT was tested, and the switch fluorescence ratio was 1.02 ± 0.032.
TTTTCAGATT was tested, and the switch fluorescence ratio was 0.9601 ± 0.0086.
With AGTGGTTTAT the switch fluorescence ratio was 0.985 ± 0.014.
GCGGCGAGGA showed a switch fluorescence ratio of 1.02 ± 0.038.
Sequence TTAGATGCGG has a switch fluorescence ratio of 1.013 ± 0.01.
Work on TCAGGCCCGT yielded a switch fluorescence ratio of 1.01 ± 0.026.
TGATCGTG gave a switch fluorescence ratio of 1.01 ± 0.015.
In the case of ATACGTTTCG, the switch fluorescence ratio is reported as 0.998 ± 0.03.
TTGGGGTTCT gave a switch fluorescence ratio of 1.04 ± 0.033.
Work on GGATTGTTGT yielded a switch fluorescence ratio of 0.994 ± 0.022.
Work on AGCAAGGGCG yielded a switch fluorescence ratio of 1.06 ± 0.074.
In the case of TTTGTGGGC, the switch fluorescence ratio is reported as 0.981 ± 0.028.
For TTGTTTTTTC, the switch fluorescence ratio was 0.986 ± 0.026.
TTTCTTGGCT showed a switch fluorescence ratio of 1.2 ± 0.38.
With CATCGGCTGA the switch fluorescence ratio was 0.992 ± 0.023.
With GGGCGCTTTC the switch fluorescence ratio was 1.03 ± 0.028.
Work on AACAAATGAT yielded a switch fluorescence ratio of 1.007 ± 0.0024.
Sequence GCGGTAACGT has a switch fluorescence ratio of 0.9765 ± 0.0069.
AAGCCAGCTC was tested, and the switch fluorescence ratio was 1.02 ± 0.037.
Work on GCCATCGTCG yielded a switch fluorescence ratio of 1.01 ± 0.044.
ATGCCTGATA was tested, and the switch fluorescence ratio was 0.963 ± 0.029.
CTGCTAGGCT gave a switch fluorescence ratio of 1.01 ± 0.028.
Sequence TTGGGGAAGC has a switch fluorescence ratio of 0.958 ± 0.002.
In the case of CGATTTCTCT, the switch fluorescence ratio is reported as 0.973 ± 0.04.
For AAGAGTGGGA, the switch fluorescence ratio was 1.03 ± 0.011.
GCCTAATATG showed a switch fluorescence ratio of 0.9793 ± 0.0083.
GTTAGGAGTC gave a switch fluorescence ratio of 0.992 ± 0.018.
TTTTTCAAGG was tested, and the switch fluorescence ratio was 1.01 ± 0.013.
ATCAGCGTTT gave a switch fluorescence ratio of 1.012 ± 0.0092.
In the case of CCTATTATTG, the switch fluorescence ratio is reported as 0.98 ± 0.028.
GAGATCGGTG showed a switch fluorescence ratio of 0.96 ± 0.023.
Sequence AGTGTGGCCT has a switch fluorescence ratio of 1 ± 0.025.
AATGGTTTTC gave a switch fluorescence ratio of 0.9948 ± 0.0023.
AACTGAGTAG was tested, and the switch fluorescence ratio was 1.01 ± 0.015.
Work on GACTGCAGGT yielded a switch fluorescence ratio of 1.01 ± 0.033.
CAATATGTGT showed a switch fluorescence ratio of 0.986 ± 0.036.
TTAATTGGGA showed a switch fluorescence ratio of 0.9897 ± 0.0028.
Work on TCATGCAAAT yielded a switch fluorescence ratio of 1.04 ± 0.031.
AATGTTTGGG showed a switch fluorescence ratio of 0.981 ± 0.021.
Sequence TGGGAAATGT has a switch fluorescence ratio of 1.1 ± 0.23.
TCGGGATCTG was tested, and the switch fluorescence ratio was 0.997 ± 0.018.
GTAATATCGG was tested, and the switch fluorescence ratio was 0.998 ± 0.018.
Work on ATTACTTACA yielded a switch fluorescence ratio of 1.308 ± 0.0037.
TGAGGCTGGG showed a switch fluorescence ratio of 1.02 ± 0.054.
With TTAGATACCA the switch fluorescence ratio was 1.03 ± 0.039.
Work on AAAAGGGCAT yielded a switch fluorescence ratio of 1.01 ± 0.015.
TTTTTCTTCA showed a switch fluorescence ratio of 1 ± 0.011.
In the case of CACAAAATAG, the switch fluorescence ratio is reported as 1.45 ± 0.49.
GGGTCTATCG showed a switch fluorescence ratio of 0.989 ± 0.034.
For CGGACTAGGT, the switch fluorescence ratio was 1.02 ± 0.011.
Work on TGTTTGTATC yielded a switch fluorescence ratio of 1.01 ± 0.016.
CGAAGGGATG was tested, and the switch fluorescence ratio was 0.982 ± 0.031.
Sequence GGGGGAAGCG has a switch fluorescence ratio of 0.9685 ± 0.0034.
AATTATGTAG was tested, and the switch fluorescence ratio was 1 ± 0.014.
Work on TAAGATGATC yielded a switch fluorescence ratio of 0.988 ± 0.048.
AGGGTCGGAT was tested, and the switch fluorescence ratio was 0.972 ± 0.033.
AATAGTGCCC gave a switch fluorescence ratio of 0.999 ± 0.053.
For GCTTTACAGA, the switch fluorescence ratio was 1 ± 0.016.
In the case of ATTATTAATG, the switch fluorescence ratio is reported as 0.9917 ± 0.008.
TTTTATGCGT was tested, and the switch fluorescence ratio was 0.993 ± 0.033.
TGCTAGGGGG was tested, and the switch fluorescence ratio was 0.989 ± 0.02.
Sequence TTGCATGATG has a switch fluorescence ratio of 0.9611 ± 0.0076.
In the case of TTGGGTTAGC, the switch fluorescence ratio is reported as 1.03 ± 0.037.
Sequence TACGTATTTA has a switch fluorescence ratio of 1.13 ± 0.0012.
TTGGGGAAGG gave a switch fluorescence ratio of 1.04 ± 0.034.
In the case of GGATAGAGAA, the switch fluorescence ratio is reported as 0.9789 ± 0.008.
AGAAGAATTT showed a switch fluorescence ratio of 1.02 ± 0.016.
Sequence TATTGGGTAT has a switch fluorescence ratio of 1.03 ± 0.038.
With CTTGACAGAG the switch fluorescence ratio was 0.9835 ± 0.0074.
Sequence TACGTAACTC has a switch fluorescence ratio of 1.28 ± 0.028.
Sequence ACGTCGCATT has a switch fluorescence ratio of 1.19 ± 0.035.
In the case of ATCCTCGATT, the switch fluorescence ratio is reported as 0.964 ± 0.0095.
AGTAGTTGAA was tested, and the switch fluorescence ratio was 0.988 ± 0.044.
GGGTTTCAGC showed a switch fluorescence ratio of 1 ± 0.053.
GAGGCGGATG showed a switch fluorescence ratio of 0.997 ± 0.028.
For AAATTGGGG, the switch fluorescence ratio was 0.9583 ± 0.0056.
Work on CGTGAGGGTA yielded a switch fluorescence ratio of 1.02 ± 0.028.
Work on ACAAAGGGGG yielded a switch fluorescence ratio of 0.92 ± 0.087.
Sequence TAAAATCAGT has a switch fluorescence ratio of 0.992 ± 0.046.
In the case of TGACGTAGTG, the switch fluorescence ratio is reported as 0.991 ± 0.028.
For AAGGGAAAGG, the switch fluorescence ratio was 1 ± 0.013.
For ATTCATTCAG, the switch fluorescence ratio was 0.9865 ± 0.0047.
With CGTTAGAATA the switch fluorescence ratio was 1.017 ± 0.0078.
TTGTGTTTTT showed a switch fluorescence ratio of 0.995 ± 0.023.
In the case of AAATCAGTGG, the switch fluorescence ratio is reported as 0.998 ± 0.031.
GTTTTGTTTT showed a switch fluorescence ratio of 0.9758 ± 0.0063.
With CGCGCTTTCA the switch fluorescence ratio was 1.02 ± 0.027.
TTAATCATAG was tested, and the switch fluorescence ratio was 1 ± 0.066.
In the case of TCTGGTAGGG, the switch fluorescence ratio is reported as 0.99 ± 0.01.
AAGATTAGGT showed a switch fluorescence ratio of 1 ± 0.059.
GCTTCTTTGT was tested, and the switch fluorescence ratio was 0.9984 ± 0.0058.
In the case of ACTTTATGCT, the switch fluorescence ratio is reported as 1.01 ± 0.024.
Work on GGTGTAGGT yielded a switch fluorescence ratio of 0.986 ± 0.022.
For AAGAAATTTT, the switch fluorescence ratio was 0.984 ± 0.012.
AAGTGGTGGG showed a switch fluorescence ratio of 0.985 ± 0.024.
With TCCGGCTGAG the switch fluorescence ratio was 1.02 ± 0.012.
Work on TTGAATTTGT yielded a switch fluorescence ratio of 0.975 ± 0.023.
TCGAGGGCAG gave a switch fluorescence ratio of 1.01 ± 0.029.
GCGGATGTGC was tested, and the switch fluorescence ratio was 1.036 ± 0.0078.
In the case of ATGGATTGCA, the switch fluorescence ratio is reported as 0.994 ± 0.023.
In the case of GGCAAAAACG, the switch fluorescence ratio is reported as 1.16 ± 0.22.
In the case of TAACACGAAT, the switch fluorescence ratio is reported as 1.01 ± 0.0083.
TACACATTTT was tested, and the switch fluorescence ratio was 1.07 ± 0.026.
CTAGATCGGT showed a switch fluorescence ratio of 0.982 ± 0.051.
For ACCCATCCAT, the switch fluorescence ratio was 1.02 ± 0.017.
In the case of TTTGGCATCA, the switch fluorescence ratio is reported as 1.04 ± 0.013.
CAATGCAGGG was tested, and the switch fluorescence ratio was 1.03 ± 0.014.
Work on CTTCATTACT yielded a switch fluorescence ratio of 1.08 ± 0.017.
TATCCTTTGT gave a switch fluorescence ratio of 1.22 ± 0.2.
For TCGGGGTCGT, the switch fluorescence ratio was 0.9859 ± 0.0065.
Work on ATTGTGCAGG yielded a switch fluorescence ratio of 0.998 ± 0.0025.
Work on GAAACGCTTT yielded a switch fluorescence ratio of 1.03 ± 0.057.
For GGTGTTTTAT, the switch fluorescence ratio was 1.02 ± 0.015.
In the case of AATTGTTAGT, the switch fluorescence ratio is reported as 0.994 ± 0.03.
ATGTGAAAGG showed a switch fluorescence ratio of 1.02 ± 0.018.
Sequence TAGGGTCACG has a switch fluorescence ratio of 0.99721 ± 0.00082.
Sequence GATATTTAGT has a switch fluorescence ratio of 0.995 ± 0.011.
Sequence AGGGGACGCC has a switch fluorescence ratio of 0.9928 ± 0.0049.
GTTTTTAAGA was tested, and the switch fluorescence ratio was 1.03 ± 0.022.
TTGGGTGTTG showed a switch fluorescence ratio of 0.997 ± 0.037.
TGGAGTTAGA showed a switch fluorescence ratio of 0.996 ± 0.035.
Sequence AGGGGGGGAT has a switch fluorescence ratio of 0.982 ± 0.029.
With GCTGGCTCGT the switch fluorescence ratio was 1.01 ± 0.013.
In the case of TTTAATACGA, the switch fluorescence ratio is reported as 1.04 ± 0.042.
CCATATTCTC gave a switch fluorescence ratio of 1.016 ± 0.0072.
For ATGTGTGAAA, the switch fluorescence ratio was 1 ± 0.073.

Reference: the supplement of paper PMC10126150
